{"source": "patent US7361133B2", "about": "“Methods of detection utilizing modified bacteriophage” (The Johns Hopkins University, priority 1997, dated 2008)", "molecules": {"B1": {"name": "Mag-4.1 phage (peptide, not shown: large carriers)", "chain": "LNDWFITYI"}}, "key": {"[1]": {"target": "T1, N-NR1 (NH2-terminal domain of NR1, a.a 1-561) fusion protein (Rattus norvegicus, UniProt P35439)", "T1 construct": "N-NR1 (aa. 1-561); made in house", "test": "Phage ELISA, binding to immobilized N-NR1 fusion protein", "design": "Inhibition of Mag-4.1 phage binding to N-NR1 by synthetic peptide: dose or concentration left out as unconfirmed", "description": "Phage selection. Six wells of a 96-well plate were precoated with mAb8610 ([…]) at 37° C. for one hour, blocked with 1% BSA for 30 minutes at 37° C. The N-NR1 fusion protein was first released by PIPLC digest after extensive washes of cells that express N-NR1. The released N-NR1 protein in the MEM medium was first treated by endo-F (1 unit per 10 mg protein) for overnight at 37° C. The treated preparation was affinity-purified by mAb8610 capture on the plates (1 mg of N-NR1 per well) at 22° C. for one hour. The phage binding was carried out by incubating with a total of 10^12 tu (transducing units) of a X9 library with a complexity of 1.2×10^10 recombinants. The binding buffer contains 10 mM Tris-HCl (pH 8.1), 100 mM NaCl and 1 mM EDTA for 3 hours at 4° C. Unbound material was removed with three washes of the binding buffer. The bound phagemid particles were recovered by adding […] of 0.1 M glycine-HCl (pH 2.2). After 10 minutes elution at room temperature, the elutes were immediately neutralized by mixing with equal volume of 0.1 M Trisbase (pH 9.2). The recovered phagemids were amplified in bacteria, and resultant phage preparations were used for the following round of purification.\nAfter five consecutive rounds of selection, the ELISA tests were performed using the supernatant of overnight cultures in the presence of 100 mM Hepes-NaOH (pH7.5) and 100 mM NaCl. The wells were coated with receptors according to the procedure described above. The bound phage particles were first detected by using rabbit anti-phage antibody (1:10,000) followed by alkaline phosphatase (AP)-conjugated secondary antibody (1:5,000, Sigma). After washing the wells with the binding buffer, […] of developing solution containing 1 mg/ml pNPP (Sigma, Mo.) in 10 mM diethanolamine-HCl (pH 9.7) was added. The alkaline phosphatase activity was monitored at the wavelength of 408 nm using a microtiter plate reader. Phage purification. The bacteria in culture medium containing phage was removed by centrifugation at 5,000×g for 30 minutes. […]"}, "[2]": {"target": "T2, N-NR1 protein on CHO cells (Rattus norvegicus, UniProt P35439)", "T2 construct": "N-NR1 (aa. 1-561); expressed in transfected cells", "test": "Phage-FACS of CHO cells expressing N-NR1", "type": "cell-based, Chinese hamster", "description": "(§1) Immunostain and Fluorescence Activated Cell Sorting (FACS). The cells were grown on cover glass coated with 1% gelatin. Prior to addition of immunoglobulin, the cells were first washed three times with cold PBS and fixed with 2% paraformaldehyde (PFA) overnight. After washing the cells with cold PBS, the fixed cells were incubated with mAb8610 (1 mg /ml) at room temperature for 1 hour. The binding of mAb8610 was detected by incubating with anti-mouse conjugated with Texas-red (15 mg per ml) 1 hour at 4C. The immunostain was visualized by a Nikon Optiphot-2 fluorescent microscope and images were collected/digitalized using a computer. Cytometry of stained cells were analyzed on either FACScan or FACStar Plus Sorter (Becton-Dickinson, San Jose, Calif.). An Argon laser is used and tuned at 488 nm. The green fluorescence was recorded in the FLI emission channel.\n(§2) Phage-immunostain and Phage-FACS detection. The purified phage preparation was used to stain live cells. For immunostain the cells were washed three times with cold PBS. Phage binding were initiated by incubating with the cells with purified phage (10^10 tu per ml) on ice for 1 hour. […] The phage-binding was detected first by rabbit anti-phage antibody (1:10,000 dilution) followed by Fluorescein labeled anti-rabbit antibody (10 mg/ml, Vector Lab, Calif.). The fluorescence labeled cells were visualized under a fluorescence microscope. […]"}, "[3]": {"target": "T3, functional NMDA receptor channels (NR1 and NR2A) in HEK cells (Rattus norvegicus, UniProt P35439)", "T3 construct": "expressed in transfected cells; host or cells: HEK cells, transient cotransfection", "test": "Phage-immunostain of HEK cells transiently expressing NR1 and NR2A", "type": "cell-based", "details": "500 mM synthetic Mag-4.1 peptide", "description": "Phage-immunostain and Phage-FACS detection. The purified phage preparation was used to stain live cells. For immunostain the cells were washed three times with cold PBS. Phage binding were initiated by incubating with the cells with purified phage (10^10 tu per ml) on ice for 1 hour. After incubation, the unbound phage was removed by three washes of cold PBS supplemented with 1% bovine serum albumin (BSA). the fixation was carried out using 2% PFA overnight at 4C. The phage-binding was detected first by rabbit anti-phage antibody (1:10,000 dilution) followed by Fluorescein labeled anti-rabbit antibody (10 mg/ml, Vector Lab, Calif.). The fluorescence labeled cells were visualized under a fluorescence microscope. For Phage-FACS, the cell preparation procedures were identical except the cells were first dislodged from the dishes by incubating with PBS supplemented with 5 mM EDTA."}, "[4]": {"target": "T4, N-NR1 protein on cell surface of CHO cells (Rattus norvegicus, UniProt P35439)", "T4 construct": "N-NR1 (aa. 1-561); expressed in transfected cells", "test": "Phage-immunostain of CHO cells expressing N-NR1 on cell surface", "type": "cell-based, Chinese hamster", "details": "500 mM Mag-4.1 peptide", "description": "as §1, §2"}, "[5]": {"target": "N-NR1 fusion protein (putative amino-terminal domain of NR1, a.a 1-561, fused to the mAb8610 epitope tag and GPI anchor signal sequence) (UniProt P35439)", "test": "phage-overlay on nitrocellulose after denaturation-renaturation"}}}
{"molecule": "GGGLNDWFITYIGGG [Mag-4.1 peptide]", "values": [{"measurement": "Affinity of monovalent peptide", "setting": "[1]; competition phage ELISA (FIG. 1C)", "value": "low affinity"}, {"measurement": "Inhibition of Mag-4.1 phage binding to N-NR1 by synthetic peptide", "setting": "[1]; synthetic peptide, phage ELISA", "value": "completely inhibited"}, {"measurement": "Inhibition of FACS phage stain signal by synthetic peptide, low N-NR1 CHO cells", "setting": "[2]; 500 mM Mag-4.1 peptide (FIG. 5C)", "value": "completely inhibited"}, {"measurement": "Effect of synthetic peptide on FACS staining signal, 1:1 mixture of low and high N-NR1 CHO cells", "setting": "[2]; 500 mM Mag-4.1 peptide (FIG. 5E)", "value": "the staining signal is sensitive to Mag-4.1 peptide"}, {"measurement": "Inhibition of phage stain signal on NR1/NR2A HEK cells by synthetic peptide", "setting": "[3]", "value": "completely inhibited"}, {"measurement": "Inhibition of phage staining signal by synthetic peptide", "setting": "[4]", "value": "completely inhibited"}]}
{"molecule": "LEAWFLQYI [Mag-4.2]", "values": [{"measurement": "Phage binding to N-NR1", "setting": "[1]; phage ELISA, immobilized N-NR1", "value": "specifically association with N-NR1"}]}
{"molecule": "B1", "values": [{"measurement": "least amount of N-NR1 protein per lane at which specific binding is detected", "setting": "[5]", "value": 20, "unit": "ng"}]}
